Test system: Escherichia coli TOP10
Assay: shrunken log2 fold change of peptide-encoding DNA abundance (4.5 h post-induction vs induction); higher = less antimicrobial activity (less host growth inhibition)
Conditions: time post-induction: 4.5 h; library: site-saturation at positions 5, 18, 19, 20
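Further: peptides expressed intracellularly from a pBAD plasmid library in pooled LB shake-flask culture, induced with 0.3% L-arabinose, DNA abundance read by NGS, three biological replicates, DESeq2 with apeglm shrinkage.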

In the case of RRIRMRPPRLPRPRPRPGLGPRP, the “shrunken log2 fold change” value was 0.914.

In the case of RRIRDRPPRLPRPRPRPLSDPRP, the “shrunken log2 fold change” value was 0.125.

With RRIRVRPPRLPRPRPRPYMQPRP the “shrunken log2 fold change” value was -0.547.

In the case of RRIRGRPPRLPRPRPRPNTSPRP, the “shrunken log2 fold change” value was 0.172.

With RRIRFRPPRLPRPRPRPNDFPRP the “shrunken log2 fold change” value was -0.228.

In the case of RRIRRRPPRLPRPRPRPNIVPRP, the “shrunken log2 fold change” value was -0.171.

In the case of RRIRQRPPRLPRPRPRPTHVPRP, the “shrunken log2 fold change” value was -0.0938.

For RRIRGRPPRLPRPRPRPFEDPRP, the “shrunken log2 fold change” value was 0.392.

For RRIRFRPPRLPRPRPRPTDSPRP, the “shrunken log2 fold change” value was -0.0233.

RRIRCRPPRLPRPRPRPFENPRP was tested, and the “shrunken log2 fold change” value was -0.0274.

For RRIRGRPPRLPRPRPRPGSFPRP, the “shrunken log2 fold change” value was 0.286.

RRIRSRPPRLPRPRPRPVGSPRP was tested, and the “shrunken log2 fold change” value was 0.304.

For RRIRSRPPRLPRPRPRPCMVPRP, the “shrunken log2 fold change” value was -0.511.

For RRIRERPPRLPRPRPRPREMPRP, the “shrunken log2 fold change” value was 0.203.

In the case of RRIRYRPPRLPRPRPRPRWLPRP, the “shrunken log2 fold change” value was -0.109.

For RRIRFRPPRLPRPRPRPEMQPRP, the “shrunken log2 fold change” value was 0.0943.

For RRIRTRPPRLPRPRPRPANDPRP, the “shrunken log2 fold change” value was -0.116.

RRIRKRPPRLPRPRPRPFYNPRP was tested, and the “shrunken log2 fold change” value was -0.695.

RRIRFRPPRLPRPRPRPDGAPRP was tested, and the “shrunken log2 fold change” value was -0.0432.

For RRIRLRPPRLPRPRPRPWACPRP, the “shrunken log2 fold change” value was -0.0699.

In the case of RRIRDRPPRLPRPRPRPVCPPRP, the “shrunken log2 fold change” value was -0.153.

RRIRVRPPRLPRPRPRPPSKPRP was tested, and the “shrunken log2 fold change” value was 1.13.

For RRIRCRPPRLPRPRPRPTEVPRP, the “shrunken log2 fold change” value was -0.135.

RRIRHRPPRLPRPRPRPSFNPRP was tested, and the “shrunken log2 fold change” value was -0.583.

For RRIRVRPPRLPRPRPRPAIDPRP, the “shrunken log2 fold change” value was 0.0602.

For RRIRQRPPRLPRPRPRPAMWPRP, the “shrunken log2 fold change” value was 0.579.

In the case of RRIRERPPRLPRPRPRPTLSPRP, the “shrunken log2 fold change” value was 0.0115.

In the case of RRIRVRPPRLPRPRPRPCLHPRP, the “shrunken log2 fold change” value was -0.947.

With RRIRHRPPRLPRPRPRPHPCPRP the “shrunken log2 fold change” value was -0.612.

RRIRWRPPRLPRPRPRPGNDPRP was tested, and the “shrunken log2 fold change” value was 0.895.

In the case of RRIRLRPPRLPRPRPRPKAKPRP, the “shrunken log2 fold change” value was 0.0705.

In the case of RRIRIRPPRLPRPRPRPPQPPRP, the “shrunken log2 fold change” value was 0.343.

For RRIRNRPPRLPRPRPRPQFPPRP, the “shrunken log2 fold change” value was -0.148.

RRIRNRPPRLPRPRPRPPIAPRP was tested, and the “shrunken log2 fold change” value was -0.312.

For RRIRPRPPRLPRPRPRPKWPPRP, the “shrunken log2 fold change” value was -0.0466.

For RRIRARPPRLPRPRPRPNNWPRP, the “shrunken log2 fold change” value was 0.0825.

For RRIRWRPPRLPRPRPRPACFPRP, the “shrunken log2 fold change” value was 0.513.

For RRIRERPPRLPRPRPRPDWDPRP, the “shrunken log2 fold change” value was -0.248.

In the case of RRIRHRPPRLPRPRPRPDPYPRP, the “shrunken log2 fold change” value was -0.126.

With RRIRRRPPRLPRPRPRPCLKPRP the “shrunken log2 fold change” value was -0.184.

In the case of RRIRCRPPRLPRPRPRPFCCPRP, the “shrunken log2 fold change” value was -0.175.

For RRIRRRPPRLPRPRPRPVIAPRP, the “shrunken log2 fold change” value was 0.654.

With RRIRYRPPRLPRPRPRPASMPRP the “shrunken log2 fold change” value was 0.0167.

RRIRRRPPRLPRPRPRPAAPPRP was tested, and the “shrunken log2 fold change” value was 0.922.

In the case of RRIRQRPPRLPRPRPRPTQEPRP, the “shrunken log2 fold change” value was 0.124.

With RRIRARPPRLPRPRPRPRLDPRP the “shrunken log2 fold change” value was 0.291.

In the case of RRIRVRPPRLPRPRPRPTWPPRP, the “shrunken log2 fold change” value was 0.446.

With RRIRYRPPRLPRPRPRPIWHPRP the “shrunken log2 fold change” value was -1.23.

With RRIRDRPPRLPRPRPRPARAPRP the “shrunken log2 fold change” value was 0.928.

With RRIRHRPPRLPRPRPRPWLRPRP the “shrunken log2 fold change” value was -0.0716.

In the case of RRIRQRPPRLPRPRPRPQMQPRP, the “shrunken log2 fold change” value was 0.131.

RRIRTRPPRLPRPRPRPWFAPRP was tested, and the “shrunken log2 fold change” value was 0.0386.

In the case of RRIRWRPPRLPRPRPRPFHLPRP, the “shrunken log2 fold change” value was -0.818.

RRIRVRPPRLPRPRPRPTFVPRP was tested, and the “shrunken log2 fold change” value was 0.0147.

With RRIRERPPRLPRPRPRPENVPRP the “shrunken log2 fold change” value was -0.0141.

For RRIRFRPPRLPRPRPRPTDQPRP, the “shrunken log2 fold change” value was -0.0655.

RRIRERPPRLPRPRPRPRGKPRP was tested, and the “shrunken log2 fold change” value was 0.0142.

For RRIRGRPPRLPRPRPRPWARPRP, the “shrunken log2 fold change” value was 0.241.

RRIRWRPPRLPRPRPRPRVIPRP was tested, and the “shrunken log2 fold change” value was -0.233.

In the case of RRIRKRPPRLPRPRPRPGYYPRP, the “shrunken log2 fold change” value was -0.0439.

For RRIRCRPPRLPRPRPRPHPPPRP, the “shrunken log2 fold change” value was 0.809.

In the case of RRIRLRPPRLPRPRPRPCQQPRP, the “shrunken log2 fold change” value was -0.047.

For RRIRSRPPRLPRPRPRPEEAPRP, the “shrunken log2 fold change” value was 0.983.

For RRIRARPPRLPRPRPRPRPYPRP, the “shrunken log2 fold change” value was 0.375.

With RRIRVRPPRLPRPRPRPVVSPRP the “shrunken log2 fold change” value was 0.0132.

With RRIRMRPPRLPRPRPRPIFNPRP the “shrunken log2 fold change” value was -0.257.

RRIRVRPPRLPRPRPRPPGWPRP was tested, and the “shrunken log2 fold change” value was 0.718.

RRIRYRPPRLPRPRPRPLVVPRP was tested, and the “shrunken log2 fold change” value was -0.72.

In the case of RRIRGRPPRLPRPRPRPMSAPRP, the “shrunken log2 fold change” value was 0.702.

With RRIRMRPPRLPRPRPRPQPVPRP the “shrunken log2 fold change” value was 0.622.

RRIRSRPPRLPRPRPRPPRMPRP was tested, and the “shrunken log2 fold change” value was 0.274.

For RRIRCRPPRLPRPRPRPSGSPRP, the “shrunken log2 fold change” value was -0.125.

For RRIRARPPRLPRPRPRPSPGPRP, the “shrunken log2 fold change” value was 0.284.

In the case of RRIRKRPPRLPRPRPRPKNKPRP, the “shrunken log2 fold change” value was 0.287.

RRIRTRPPRLPRPRPRPVSEPRP was tested, and the “shrunken log2 fold change” value was 0.135.

In the case of RRIRNRPPRLPRPRPRPCCVPRP, the “shrunken log2 fold change” value was -0.667.

With RRIRIRPPRLPRPRPRPGMHPRP the “shrunken log2 fold change” value was 0.00513.

RRIRIRPPRLPRPRPRPNYRPRP was tested, and the “shrunken log2 fold change” value was -0.00601.

For RRIRNRPPRLPRPRPRPVCMPRP, the “shrunken log2 fold change” value was -0.0349.

For RRIRCRPPRLPRPRPRPMHFPRP, the “shrunken log2 fold change” value was 0.102.

In the case of RRIRARPPRLPRPRPRPDTTPRP, the “shrunken log2 fold change” value was 0.0242.

With RRIRERPPRLPRPRPRPKSPPRP the “shrunken log2 fold change” value was 0.163.

With RRIRCRPPRLPRPRPRPVTDPRP the “shrunken log2 fold change” value was 0.133.

With RRIRPRPPRLPRPRPRPYDLPRP the “shrunken log2 fold change” value was -0.293.

In the case of RRIRCRPPRLPRPRPRPCSDPRP, the “shrunken log2 fold change” value was -0.0728.

For RRIRWRPPRLPRPRPRPRFSPRP, the “shrunken log2 fold change” value was 0.0681.

In the case of RRIRPRPPRLPRPRPRPNSAPRP, the “shrunken log2 fold change” value was 0.204.

RRIRMRPPRLPRPRPRPLIVPRP was tested, and the “shrunken log2 fold change” value was 1.71.

In the case of RRIRHRPPRLPRPRPRPMIYPRP, the “shrunken log2 fold change” value was -0.105.

With RRIRVRPPRLPRPRPRPCVDPRP the “shrunken log2 fold change” value was -0.0658.

RRIRNRPPRLPRPRPRPIFIPRP was tested, and the “shrunken log2 fold change” value was -0.44.

Reference: the supplement of paper PMC9112550, “Optimization of the antimicrobial peptide Bac7 by deep mutational scanning” (BMC Biology, 2022)
